One molecule from paper doi:10.1101/2022.06.02.494630 (bioRxiv, 2022) can be followed below.

The target of the experiment is T1, GST-tagged recombinant PfPHB2 (Plasmodium falciparum (3D7), UniProt Q8IJP8 1-304).
T1 sequence (looked up): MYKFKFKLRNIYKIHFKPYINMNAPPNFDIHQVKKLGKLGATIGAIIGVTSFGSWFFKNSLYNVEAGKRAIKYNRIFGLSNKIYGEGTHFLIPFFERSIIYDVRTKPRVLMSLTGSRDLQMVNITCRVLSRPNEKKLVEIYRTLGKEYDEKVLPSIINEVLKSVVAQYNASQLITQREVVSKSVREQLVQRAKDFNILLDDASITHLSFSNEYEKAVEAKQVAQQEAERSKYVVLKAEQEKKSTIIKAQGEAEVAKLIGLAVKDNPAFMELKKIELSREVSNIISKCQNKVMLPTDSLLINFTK
The experiment is described as follows: MST.

B1: GST-tagged recombinant PfPHB1 (natural protein, Plasmodium falciparum (3D7), UniProt Q8IBC3 1-272, looked up)
chain: MERILSSIGKLSVVAGGLSLIPYTFIYDVDGGERCVMFNRFGGVSENTFGEGSHFYVPWFQTPYIYDIKMKPKVINTTTGTRDLQIVTISLRLLFRPHTQHLPYLHSTLGPDYDERVLPSIGNEVLKAVVAKYNAESLLTQRDKISKEIRESITARAKHFNILLDDVAITHLSYGKEFAKAIEDKQVAQQESERVKFIVAKTEQEKIAAVIKAQGEAEAAKLISSAVKEYGKSLIEIRKLEAAKEIAENLSKSKNVTYFPSNSNILLNPRDF
modifications: Lysine reactive dye (Monolith Protein Labelling Kit Red-NHS 2nd Generation), in the MST only
For the molecule B1, the Kd (as a rule, the equilibrium constant for the complex coming apart) came to 136 ± 10.5 nM.
